These results are taken from article PMC9214244, “Multivalent Interaction of Beta-Catenin With its Intrinsically Disordered Binding Partner Adenomatous Polyposis Coli” (Frontiers in Molecular Biosciences, 2022).

Where no end group is shown, it is not given here.

For assay [1], the target named is armadillo (ARM) repeat domain of human β-catenin (residues 134–671) (human) (UniProt P35222). In words: other fluorescence titration; competition: 20 nM Alexa-488-APCbc and 200 nM β-catenin incubated 30 min, then unlabelled APCbc variants titrated; PBS, 1 mM DTT; 25°C.
For assay [2], the target named is T1, armadillo (ARM) repeat domain of human β-catenin (residues 134–671) (human, UniProt P35222 134-671).
T1 construct: two residues left at the N-terminus after thrombin cleavage of GST; β-catenin, human, armadillo repeat domain, residues 134-671; plasmid a gift from W. I. Weis; source: E. coli C41, purified (glutathione-Sepharose, thrombin cleavage on the resin, Mono-Q); not shown: GST, N-terminal, cleaved
T1 sequence: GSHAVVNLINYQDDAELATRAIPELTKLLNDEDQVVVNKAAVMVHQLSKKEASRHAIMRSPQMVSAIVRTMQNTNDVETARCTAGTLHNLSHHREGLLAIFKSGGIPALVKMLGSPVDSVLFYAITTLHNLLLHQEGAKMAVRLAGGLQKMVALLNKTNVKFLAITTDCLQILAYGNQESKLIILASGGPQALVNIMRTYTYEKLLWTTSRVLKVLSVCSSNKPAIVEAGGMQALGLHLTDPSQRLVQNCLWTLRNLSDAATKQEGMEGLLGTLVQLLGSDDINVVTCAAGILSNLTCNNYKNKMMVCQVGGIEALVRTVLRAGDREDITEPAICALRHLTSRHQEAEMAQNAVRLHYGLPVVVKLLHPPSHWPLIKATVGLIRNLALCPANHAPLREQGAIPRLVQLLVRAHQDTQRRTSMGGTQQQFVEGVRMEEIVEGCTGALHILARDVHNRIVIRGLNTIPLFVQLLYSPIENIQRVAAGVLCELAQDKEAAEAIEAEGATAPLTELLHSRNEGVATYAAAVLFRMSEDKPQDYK
In words: fluorescence polarisation; fluorescence anisotropy; β-catenin titrated into 10 nM fluorescein-labelled APC construct; PBS, 1 mM DTT; 15°C; adjusted anisotropy fitted to a Hill equation. The note with it: both partners purified. Background: Fluorescence polarisation rises when a labelled molecule tumbles more slowly, as on binding a larger partner.

Assay [3] deals with T1, armadillo (ARM) repeat domain of human …. Described as above. The note with it: both partners purified. The source holds these as a separate data set.
The target is the same in assay [4]. In words: stopped-flow fluorescence; association: 25 nM fluorescein-labelled APC mixed 1:1 by volume with 250-2,000 nM β-catenin (pseudo first-order); dissociation: pre-formed 1:1 complex (200 nM) mixed with 10 times molar excess of the same APC construct; PBS, 1 mM DTT; 15°C. Conditions: both partners purified.

For the molecule “APCbc S1505E (S2), unlabelled (from UniProt P25054 1483-1533) (domain or fragment)”, in assay [1], the fold increase in affinity (IC50) against APCbc is 5 fold.
“APCbc S1507E (S3), unlabelled (from UniProt P25054 1483-1533) (domain or fragment)”: the fold increase in affinity (IC50) against APCbc in assay [1] amounted to 30 fold.

B1: APC R3 construct with E1494T (domain or fragment)
chain: SGPKQAAVNAAVQRVQVLPDADTLLHFATTSTPDGFSC(fluorescein‑maleimide)SSSLSALSLDEPFIQKDVELRIMPPVQEND
modifications: not fully specified
As usually defined, the Kd is the free concentration of one partner at which half of the binding sites on the other are occupied at equilibrium, for simple one-to-one binding. High values mean weaker binding, low ones tighter binding. B1: the Kd in assay [2] was > 5000 nM.

B2: APCab, APC R3 subdomains a and b, fluorescein-labelled at Cys 1501 (domain or fragment)
chain: GSSGPKQAAVNAAVQRVQVLPDADTLLHFATESTPDGFSC(fluorescein‑maleimide)
notes: two residues left at the N-terminus after thrombin cleavage of GST; adenomatous polyposis coli (APC), R3 region, subdomains a (1465-1483) and b (1483-1502); source: E. coli C41, purified (glutathione-Sepharose, thrombin cleavage on the resin, differential filtration); not shown: GST, N-terminal, cleaved
One may read the kon as the rate constant with which the complex forms. Read a low kon as slow association. In assay [3], B2 gave a Kd of 89.9 nM. Also, in assay [4], the kon came out at 1.33e+07 M⁻¹ s⁻¹.

B3: APCb, lysine-binding domain b of APC R3, fluorescein-labelled at Cys 1501 (domain or fragment)
chain: GSPDADTLLHFATESTPDGFSC(fluorescein‑maleimide)
notes: two residues left at the N-terminus after thrombin cleavage of GST; adenomatous polyposis coli (APC), R3 region, subdomain b, residues 1483-1502; source: E. coli C41, purified (glutathione-Sepharose, thrombin cleavage on the resin, differential filtration); not shown: GST, N-terminal, cleaved
As for B3, the Kd in assay [3] was found to be 246 nM. That is a sub-micromolar value.

B4: APCabc D1486S, fluorescein-labelled at Cys 1501 (domain or fragment)
chain: SGPKQAAVNAAVQRVQVLPDASTLLHFATESTPDGFSC(fluorescein‑maleimide)SSSLSALSLDEPFIQKDVELRIMPPVQEND
Regarding B4, the equilibrium dissociation constant (Kd) in assay [3] was 2050 nM.
